{"source": "the supplement of paper PMC9112550", "about": "“Optimization of the antimicrobial peptide Bac7 by deep mutational scanning” (BMC Biology, 2022);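 note: peptides expressed intracellularly from a pBAD plasmid library in pooled LB shake-flask culture, induced with 0.3% L-arabinose, DNA abundance read by NGS, three biological replicates, DESeq2 with apeglm shrinkage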", "data": [{"test_system": "Escherichia coli TOP10", "experiment": "shrunken log2 fold change of peptide-encoding DNA abundance (4.5 h post-induction vs induction); higher = less antimicrobial activity (less host growth inhibition)", "conditions": "time post-induction: 4.5 h; library: site-saturation at positions 5, 18, 19, 20", "values": [{"sequence": "RRIRNRPPRLPRPRPRPKNCPRP", "shrunken log2 fold change": -0.552}, {"sequence": "RRIRCRPPRLPRPRPRPQAFPRP", "shrunken log2 fold change": -0.00585}, {"sequence": "RRIRIRPPRLPRPRPRPKTDPRP", "shrunken log2 fold change": -0.292}, {"sequence": "RRIRTRPPRLPRPRPRPWICPRP", "shrunken log2 fold change": 0.0207}, {"sequence": "RRIRGRPPRLPRPRPRPPNWPRP", "shrunken log2 fold change": 0.862}, {"sequence": "RRIRLRPPRLPRPRPRPADQPRP", "shrunken log2 fold change": 0.0203}, {"sequence": "RRIRDRPPRLPRPRPRPPICPRP", "shrunken log2 fold change": -0.224}, {"sequence": "RRIRNRPPRLPRPRPRPGSFPRP", "shrunken log2 fold change": -0.0339}, {"sequence": "RRIRHRPPRLPRPRPRPKDYPRP", "shrunken log2 fold change": 0.0577}, {"sequence": "RRIRERPPRLPRPRPRPVHKPRP", "shrunken log2 fold change": -0.581}, {"sequence": "RRIRMRPPRLPRPRPRPCIMPRP", "shrunken log2 fold change": -0.533}, {"sequence": "RRIRTRPPRLPRPRPRPEWVPRP", "shrunken log2 fold change": 0.457}, {"sequence": "RRIRDRPPRLPRPRPRPGQFPRP", "shrunken log2 fold change": -0.166}, {"sequence": "RRIRHRPPRLPRPRPRPQMAPRP", "shrunken log2 fold change": -0.191}, {"sequence": "RRIRFRPPRLPRPRPRPWGVPRP", "shrunken log2 fold change": -0.517}, {"sequence": "RRIRPRPPRLPRPRPRPSNDPRP", "shrunken log2 fold change": -0.288}, {"sequence": "RRIRERPPRLPRPRPRPHEQPRP", "shrunken log2 fold change": -0.0112}, {"sequence": "RRIRGRPPRLPRPRPRPIPNPRP", "shrunken log2 fold change": 0.172}, {"sequence": "RRIRRRPPRLPRPRPRPRSFPRP", "shrunken log2 fold change": 0.401}, {"sequence": "RRIRYRPPRLPRPRPRPNKCPRP", "shrunken log2 fold change": -0.269}, {"sequence": "RRIRVRPPRLPRPRPRPEMAPRP", "shrunken log2 fold change": 0.311}, {"sequence": "RRIRHRPPRLPRPRPRPERVPRP", "shrunken log2 fold change": 0.228}, {"sequence": "RRIRQRPPRLPRPRPRPKEWPRP", "shrunken log2 fold change": -0.00145}, {"sequence": "RRIRPRPPRLPRPRPRPRAGPRP", "shrunken log2 fold change": 0.626}, {"sequence": "RRIRGRPPRLPRPRPRPEQDPRP", "shrunken log2 fold change": 1.47}, {"sequence": "RRIRKRPPRLPRPRPRPALQPRP", "shrunken log2 fold change": 0.493}, {"sequence": "RRIRIRPPRLPRPRPRPDNGPRP", "shrunken log2 fold change": -0.375}, {"sequence": "RRIRHRPPRLPRPRPRPSAFPRP", "shrunken log2 fold change": -0.435}, {"sequence": "RRIRERPPRLPRPRPRPNMFPRP", "shrunken log2 fold change": -0.615}, {"sequence": "RRIRLRPPRLPRPRPRPVLFPRP", "shrunken log2 fold change": -0.0101}, {"sequence": "RRIRMRPPRLPRPRPRPIAPPRP", "shrunken log2 fold change": 0.47}, {"sequence": "RRIRHRPPRLPRPRPRPKHLPRP", "shrunken log2 fold change": -0.237}, {"sequence": "RRIRVRPPRLPRPRPRPYGVPRP", "shrunken log2 fold change": -0.153}, {"sequence": "RRIRGRPPRLPRPRPRPKDGPRP", "shrunken log2 fold change": 0.798}, {"sequence": "RRIRFRPPRLPRPRPRPQMEPRP", "shrunken log2 fold change": -0.059}, {"sequence": "RRIRERPPRLPRPRPRPGQPPRP", "shrunken log2 fold change": 0.0236}, {"sequence": "RRIRCRPPRLPRPRPRPLMEPRP", "shrunken log2 fold change": -0.0946}, {"sequence": "RRIRCRPPRLPRPRPRPRCWPRP", "shrunken log2 fold change": 0.502}, {"sequence": "RRIRHRPPRLPRPRPRPSSVPRP", "shrunken log2 fold change": 0.0608}, {"sequence": "RRIRCRPPRLPRPRPRPVFIPRP", "shrunken log2 fold change": -0.612}, {"sequence": "RRIRDRPPRLPRPRPRPYVSPRP", "shrunken log2 fold change": -0.032}, {"sequence": "RRIRMRPPRLPRPRPRPNKEPRP", "shrunken log2 fold change": 0.127}, {"sequence": "RRIRIRPPRLPRPRPRPWSRPRP", "shrunken log2 fold change": -0.187}, {"sequence": "RRIRFRPPRLPRPRPRPYKFPRP", "shrunken log2 fold change": -0.228}, {"sequence": "RRIRARPPRLPRPRPRPKKAPRP", "shrunken log2 fold change": 0.285}, {"sequence": "RRIRRRPPRLPRPRPRPRVAPRP", "shrunken log2 fold change": 0.875}, {"sequence": "RRIRMRPPRLPRPRPRPMCQPRP", "shrunken log2 fold change": 0.00866}, {"sequence": "RRIRLRPPRLPRPRPRPCIWPRP", "shrunken log2 fold change": -0.21}, {"sequence": "RRIRSRPPRLPRPRPRPVFLPRP", "shrunken log2 fold change": -0.131}, {"sequence": "RRIRCRPPRLPRPRPRPILTPRP", "shrunken log2 fold change": -0.302}, {"sequence": "RRIRARPPRLPRPRPRPCYIPRP", "shrunken log2 fold change": -0.607}, {"sequence": "RRIRLRPPRLPRPRPRPWLFPRP", "shrunken log2 fold change": 0.193}, {"sequence": "RRIRGRPPRLPRPRPRPTWWPRP", "shrunken log2 fold change": 0.906}, {"sequence": "RRIRDRPPRLPRPRPRPGTPPRP", "shrunken log2 fold change": 0.223}, {"sequence": "RRIRRRPPRLPRPRPRPKYFPRP", "shrunken log2 fold change": 0.162}, {"sequence": "RRIRPRPPRLPRPRPRPNKAPRP", "shrunken log2 fold change": 0.0279}, {"sequence": "RRIRERPPRLPRPRPRPYTFPRP", "shrunken log2 fold change": -0.282}, {"sequence": "RRIRDRPPRLPRPRPRPQFMPRP", "shrunken log2 fold change": 1.04}, {"sequence": "RRIRPRPPRLPRPRPRPPNCPRP", "shrunken log2 fold change": 0.215}, {"sequence": "RRIRRRPPRLPRPRPRPMKHPRP", "shrunken log2 fold change": -0.191}, {"sequence": "RRIRMRPPRLPRPRPRPGYKPRP", "shrunken log2 fold change": -0.517}, {"sequence": "RRIRDRPPRLPRPRPRPDRVPRP", "shrunken log2 fold change": -0.0392}, {"sequence": "RRIRFRPPRLPRPRPRPQGHPRP", "shrunken log2 fold change": 0.0395}, {"sequence": "RRIRPRPPRLPRPRPRPLMIPRP", "shrunken log2 fold change": -0.152}, {"sequence": "RRIRHRPPRLPRPRPRPCHFPRP", "shrunken log2 fold change": -0.0384}, {"sequence": "RRIRLRPPRLPRPRPRPHISPRP", "shrunken log2 fold change": -0.272}, {"sequence": "RRIRHRPPRLPRPRPRPMGGPRP", "shrunken log2 fold change": 0.0348}, {"sequence": "RRIRWRPPRLPRPRPRPCNSPRP", "shrunken log2 fold change": -0.281}, {"sequence": "RRIRMRPPRLPRPRPRPVINPRP", "shrunken log2 fold change": -0.305}, {"sequence": "RRIRFRPPRLPRPRPRPHWMPRP", "shrunken log2 fold change": -0.457}, {"sequence": "RRIRYRPPRLPRPRPRPAMQPRP", "shrunken log2 fold change": -0.0244}, {"sequence": "RRIRNRPPRLPRPRPRPDNVPRP", "shrunken log2 fold change": -0.0161}, {"sequence": "RRIRHRPPRLPRPRPRPPGLPRP", "shrunken log2 fold change": 0.0255}, {"sequence": "RRIRPRPPRLPRPRPRPSFYPRP", "shrunken log2 fold change": -0.303}, {"sequence": "RRIRERPPRLPRPRPRPDHWPRP", "shrunken log2 fold change": 0.0945}]}]}
